Measured values as given in article PMC9302817, “VEGF receptor heterodimers and homodimers are differentially expressed in neuronal and endothelial cell types” (PLoS ONE, 2022).

B1: VEGFR1 (mouse, endogenous in MAEC, MVEC, trigeminal ganglion neurons and mouse tissues) (receptor, UniProt P35969 23-1333, looked up)
chain: YGSGSKLKVPELSLKGTQHVMQAGQTLFLKCRGEAAHSWSLPTTVSQEDKRLSITPPSACGRDNRQFCSTLTLDTAQANHTGLYTCRYLPTSTSKKKKAESSIYIFVSDAGSPFIEMHTDIPKLVHMTEGRQLIIPCRVTSPNVTVTLKKFPFDTLTPDGQRITWDSRRGFIIANATYKEIGLLNCEATVNGHLYQTNYLTHRQTNTILDVQIRPPSPVRLLHGQTLVLNCTATTELNTRVQMSWNYPGKATKRASIRQRIDRSHSHNNVFHSVLKINNVESRDKGLYTCRVKSGSSFQSFNTSVHVYEKGFISVKHRKQPVQETTAGRRSYRLSMKVKAFPSPEIVWLKDGSPATLKSARYLVHGYSLIIKDVTTEDAGDYTILLGIKQSRLFKNLTATLIVNVKPQIYEKSVSSLPSPPLYPLGSRQVLTCTVYGIPRPTITWLWHPCHHNHSKERYDFCTENEESFILDPSSNLGNRIESISQRMTVIEGTNKTVSTLVVADSQTPGIYSCRAFNKIGTVERNIKFYVTDVPNGFHVSLEKMPAEGEDLKLSCVVNKFLYRDITWILLRTVNNRTMHHSISKQKMATTQDYSITLNLVIKNVSLEDSGTYACRARNIYTGEDILRKTEVLVRDSEAPHLLQNLSDYEVSISGSTTLDCQARGVPAPQITWFKNNHKIQQEPGIILGPGNSTLFIERVTEEDEGVYRCRATNQKGAVESAAYLTVQGTSDKSNLELITLTCTCVAATLFWLLLTLFIRKLKRSSSEVKTDYLSIIMDPDEVPLDEQCERLPYDASKWEFARERLKLGKSLGRGAFGKVVQASAFGIKKSPTCRTVAVKMLKEGATASEYKALMTELKILTHIGHHLNVVNLLGACTKQGGPLMVIVEYCKYGNLSNYLKSKRDLFCLNKDAALHMELKKESLEPGLEQGQKPRLDSVSSSSVTSSSFPEDRSVSDVEGDEDYSEISKQPLTMEDLISYSFQVARGMEFLSSRKCIHRDLAARNILLSENNVVKICDFGLARDIYKNPDYVRRGDTRLPLKWMAPESIFDKVYSTKSDVWSYGVLLWEIFSLGGSPYPGVQMDEDFCSRLKEGMRMRTPEYATPEIYQIMLDCWHKDPKERPRFAELVEKLGDLLQANVQQDGKDYIPLNAILTRNSGFTYSTPTFSEDLFKDGFADPHFHSGSSDDVRYVNAFKFMSLERIKTFEELSPNSTSMFEDYQLDTSTLLGSPLLKRFTWTETKPKASMKIDLRIASKSKEAGLSDLPRPSFCFSSCGHIRPVQDDESELGKESCCSPPPDYNSVVLYSSPPA
notes: VEGF receptor 1 (VEGFR-1, flt-1), endogenous in mouse aortic and venous endothelial cell lines, thy1-YFP mouse trigeminal ganglion neurons and mouse tissues; Endogenous protein; also called flt-1; Flt-1; source: endogenous, MAEC and MVEC lysates; endogenous, mouse tissue lysates (thoracic aorta, portal vein, dorsal root ganglia, trigeminal ganglia, cornea); endogenous, fixed MAEC, MVEC and …
B2: VEGFR2 (mouse, endogenous in MAEC, MVEC, trigeminal ganglion neurons and mouse tissues) (receptor, UniProt P35918 20-1345, looked up)
chain: ASVGLPGDFLHPPKLSTQKDILTILANTTLQITCRGQRDLDWLWPNAQRDSEERVLVTECGGGDSIFCKTLTIPRVVGNDTGAYKCSYRDVDIASTVYVYVRDYRSPFIASVSDQHGIVYITENKNKTVVIPCRGSISNLNVSLCARYPEKRFVPDGNRISWDSEIGFTLPSYMISYAGMVFCEAKINDETYQSIMYIVVVVGYRIYDVILSPPHEIELSAGEKLVLNCTARTELNVGLDFTWHSPPSKSHHKKIVNRDVKPFPGTVAKMFLSTLTIESVTKSDQGEYTCVASSGRMIKRNRTFVRVHTKPFIAFGSGMKSLVEATVGSQVRIPVKYLSYPAPDIKWYRNGRPIESNYTMIVGDELTIMEVTERDAGNYTVILTNPISMEKQSHMVSLVVNVPPQIGEKALISPMDSYQYGTMQTLTCTVYANPPLHHIQWYWQLEEACSYRPGQTSPYACKEWRHVEDFQGGNKIEVTKNQYALIEGKNKTVSTLVIQAANVSALYKCEAINKAGRGERVISFHVIRGPEITVQPAAQPTEQESVSLLCTADRNTFENLTWYKLGSQATSVHMGESLTPVCKNLDALWKLNGTMFSNSTNDILIVAFQNASLQDQGDYVCSAQDKKTKKRHCLVKQLIILERMAPMITGNLENQTTTIGETIEVTCPASGNPTPHITWFKDNETLVEDSGIVLRDGNRNLTIRRVRKEDGGLYTCQACNVLGCARAETLFIIEGAQEKTNLEVIILVGTAVIAMFFWLLLVIVLRTVKRANEGELKTGYLSIVMDPDELPLDERCERLPYDASKWEFPRDRLKLGKPLGRGAFGQVIEADAFGIDKTATCKTVAVKMLKEGATHSEHRALMSELKILIHIGHHLNVVNLLGACTKPGGPLMVIVEFCKFGNLSTYLRGKRNEFVPYKSKGARFRQGKDYVGELSVDLKRRLDSITSSQSSASSGFVEEKSLSDVEEEEASEELYKDFLTLEHLICYSFQVAKGMEFLASRKCIHRDLAARNILLSEKNVVKICDFGLARDIYKDPDYVRKGDARLPLKWMAPETIFDRVYTIQSDVWSFGVLLWEIFSLGASPYPGVKIDEEFCRRLKEGTRMRAPDYTTPEMYQTMLDCWHEDPNQRPSFSELVEHLGNLLQANAQQDGKDYIVLPMSETLSMEEDSGLSLPTSPVSCMEEEEVCDPKFHYDNTAGISHYLQNSKRKSRPVSVKTFEDIPLEEPEVKVIPDDSQTDSGMVLASEELKTLEDRNKLSPSFGGMMPSKSRESVASEGSNQTSGYQSGYHSDDTDTTVYSSDEAGLLKMVDAAVHADSGTTLRSPPV
notes: Endogenous protein; also called KDR; flk-1; source: endogenous, MAEC and MVEC lysates; endogenous, mouse tissue lysates (thoracic aorta, portal vein, dorsal root ganglia, trigeminal ganglia, cornea); endogenous, fixed MAEC, MVEC and trigeminal ganglion neuronal cells

Experiments:
[1] = biological target: the molecule itself; test: proximity ligation; Duolink PLA on fixed MVEC; anti-VEGFR1 and anti-VEGFR2 with PLUS and MINUS probes (the same antibody with both probes for homodimers); signal only within 40 nm
[2] = biological target: the molecule itself; test: proximity ligation; Duolink PLA on fixed mouse trigeminal ganglion (TG) neuronal cells; anti-VEGFR1 and anti-VEGFR2 with PLUS and MINUS probes (the same antibody with both probes for homodimers); signal only within 40 nm
[3] = biological target: B1; test: proximity ligation; Duolink PLA on fixed MVEC; anti-VEGFR1 and anti-VEGFR2 with PLUS and MINUS probes (the same antibody with both probes for homodimers); signal only within 40 nm; conditions: partners not purified
[4] = biological target: B1; test: proximity ligation; Duolink PLA on fixed mouse trigeminal ganglion (TG) neuronal cells; anti-VEGFR1 and anti-VEGFR2 with PLUS and MINUS probes (the same antibody with both probes for homodimers); signal only within 40 nm; conditions: partners not purified

Binder | mean PLA fluorescence intensity per cell [1] | mean PLA fluorescence intensity per cell [2] | mean PLA fluorescence intensity per cell [3] | mean PLA fluorescence intensity per cell [4]
B1 | 43300 | 2200 | – | –
B2 | 2.58e+06 | 706000 | 99600 | 268000
